From patent US20240132593A1 (published 2024)
Values joined by “and” are separate entries in the source; they are usually repeats but may differ in a detail not shown here. Equal entries are not always repeated. Where two headings read alike, the source gives them in different places. Blank lines part the entries; values can stand above or below the binder they belong to.

Key:
FcRn = FcRn (UniProt P55899 24-297; P61769 21-119, biotinylated (sites not given)); assay: AlphaLISA FcRn binding assay
FCGR1/CD64 = target: T1, FCGR1/CD64 (UniProt P12314 16-288, biotinylated (sites not given)); assay: AlphaLISA FcγR1 binding assay
T1 chain: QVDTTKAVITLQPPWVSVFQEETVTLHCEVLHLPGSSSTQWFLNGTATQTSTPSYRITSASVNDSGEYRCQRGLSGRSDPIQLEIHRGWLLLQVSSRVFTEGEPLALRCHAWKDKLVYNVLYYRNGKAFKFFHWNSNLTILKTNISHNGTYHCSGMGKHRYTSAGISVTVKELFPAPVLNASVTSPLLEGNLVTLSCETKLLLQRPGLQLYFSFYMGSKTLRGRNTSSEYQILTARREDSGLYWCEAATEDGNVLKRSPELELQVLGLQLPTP

FCGR2A/CD32A (167R) = assay: AlphaLISA FcγR2a binding assay
FCGR2A/CD32A (167H) = assay: AlphaLISA FcγR2a binding assay
[1] = target: T2, immunoglobulin gamma Fc receptor 1 (FcγR1) (biotinylated, AlphaLisa binding kit Perkin Elmer #AL3081C) (UniProt P12314 16-288, biotinylated (sites not given)); assay: AlphaLISA FcγR1 binding assay
T2 chain: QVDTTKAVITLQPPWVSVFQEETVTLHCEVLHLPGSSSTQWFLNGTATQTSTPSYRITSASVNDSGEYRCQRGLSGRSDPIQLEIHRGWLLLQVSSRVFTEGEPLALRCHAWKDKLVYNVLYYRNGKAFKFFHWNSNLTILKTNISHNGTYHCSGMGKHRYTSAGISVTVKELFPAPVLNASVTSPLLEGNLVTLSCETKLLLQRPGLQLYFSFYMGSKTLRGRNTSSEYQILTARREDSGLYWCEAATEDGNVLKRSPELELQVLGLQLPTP

[2] = target: T3, FcRn receptor (biotinylated, AlphaLisa binding kit Perkin Elmer #AL3095C) (UniProt P55899 24-297; P61769 21-119, biotinylated (sites not given)); assay: AlphaLISA FcRn binding assay
[3] = target: T3, FcRn receptor (biotinylated, AlphaLisa …); assay: AlphaLISA FcRn binding assay; remark: listed apart in the source
[4] = target: T2, immunoglobulin gamma Fc receptor 1 …; assay: AlphaLISA FcγR1 binding assay

B2: Ab No. 420.1 (YTE) (antibody)
chain 1: MGWSCIILFLVATATGVHSQLQLQESGPGLVKPSETLSLTCIVSGGSISSSGYYWGWIRQPPGKGLEWIGSIFYSGNTHYNPSLKSRVTIPVDTSKNQFSLKLSSVTAADSAVYYCARRDILTGPFDYWGQGTLVTVSSAASTKGPSVFPLAPSSKSTSGGTAALGCLVKDYFPEPVTVSWNSGALTSGVHTFPAVLQSSGLYSLSSVVTVPSSSLGTQTYICNVNHKPSNTKVDKKVEPKSCDKTHTCPPCPAPELLGGPSVFLFPPKPKDTLYITREPEVTCVVVDVSHEDPEVKFNWYVDGVEVHNAKTKPREEQYNSTYRVVSVLTVLHQDWLNGKEYKCKVSNKALPAPIEKTISKAKGQPREPQVYTLPPSRDELTKNQVSLTCLVKGFYPSDIAVEWESNGQPENNYKTTPPVLDSDGSFFLYSKLTVDKSRWQQGNVFSCSVMHEALHNHYTQKSLSLSPGK
chain 2: not shown
EC50 [1]: 14.7 nM and 2.2 µg/mL

B3: Ab No. 420.1(YTE) (antibody)
chain 1: MGWSCIILFLVATATGVHSQLQLQESGPGLVKPSETLSLTCIVSGGSISSSGYYWGWIRQPPGKGLEWIGSIFYSGNTHYNPSLKSRVTIPVDTSKNQFSLKLSSVTAADSAVYYCARRDILTGPFDYWGQGTLVTVSSAASTKGPSVFPLAPSSKSTSGGTAALGCLVKDYFPEPVTVSWNSGALTSGVHTFPAVLQSSGLYSLSSVVTVPSSSLGTQTYICNVNHKPSNTKVDKKVEPKSCDKTHTCPPCPAPELLGGPSVFLFPPKPKDTLYITREPEVTCVVVDVSHEDPEVKFNWYVDGVEVHNAKTKPREEQYNSTYRVVSVLTVLHQDWLNGKEYKCKVSNKALPAPIEKTISKAKGQPREPQVYTLPPSRDELTKNQVSLTCLVKGFYPSDIAVEWESNGQPENNYKTTPPVLDSDGSFFLYSKLTVDKSRWQQGNVFSCSVMHEALHNHYTQKSLSLSPGK
chain 2: not shown
EC50 [2]: 0.376 nM and 0.0565 µg/mL

B4: Ab No. 150.1 (YTE) (antibody)
light: not shown
heavy: QVQLQESGPGLVKPSETLSLTCTVSGGSISSYYWSWIRQPPGKGLEWIGYIYYSGSTNYNPSLKSRVTISVDTSKSQFSLKLSSVTAADTAVYYCARDIPAFAFDIWGQGTMVIVSSASTKGPSVFPLAPSSKSTSGGTAALGCLVKDYFPEPVTVSWNSGALTSGVHTFPAVLQSSGLYSLSSVVTVPSSSLGTQTYICNVNHKPSNTKVDKKVEPKSCDKTHTCPPCPAPELLGGPSVFLFPPKPKDTLYITREPEVTCVVVDVSHEDPEVKFNWYVDGVEVHNAKTKPREEQYNSTYRVVSVLTVLHQDWLNGKEYKCKVSNKALPAPIEKTISKAKGQPREPQVYTLPPSRDELTKNQVSLTCLVKGFYPSDIAVEWESNGQPENNYKTTPPVLDSDGSFFLYSKLTVDKSRWQQGNVFSCSVMHEALHNHYTQKSLSLSPGK
EC50 (FCGR2A/CD32A (167R)): 275 nM and 41.3 µg/mL
EC50 (FCGR2A/CD32A (167H)): 18.3 µg/mL and 122 nM

B7: Ab No. 420.4 (YTE) (antibody)
chain 1: MGWSCIILFLVATATGVHSQLQLQESGPGLVKPSETLSLTCIVSGGSISSSGYYWGWIRQPPGKGLEWIGSIFYSGNTHYNPSLKSRVTIPVDTSKNQFSLKLSSVTAADSAVYYCARRDILTGPFDYWGQGTLVTVSSAASTKGPSVFPLAPCSRSTSESTAALGCLVKDYFPEPVTVSWNSGALTSGVHTFPAVLQSSGLYSLSSVVTVPSSSLGTKTYTCNVDHKPSNTKVDKRVESKYGPPCPSCPAPEFLGGPSVFLFPPKPKDTLYITREPEVTCVVVDVSQEDPEVQFNWYVDGVEVHNAKTKPREEQFNSTYRVVSVLTVLHQDWLNGKEYKCKVSNKGLPSSIEKTISKAKGQPREPQVYTLPPSQEEMTKNQVSLTCLVKGFYPSDIAVEWESNGQPENNYKTTPPVLDSDGSFFLYSRLTVDKSRWQEGNVFSCSVMHEALHNHYTQKSLSLSLGK
chain 2: not shown
EC50 [1]: 139 nM and 20.8 µg/mL

Now from value to binder:

EC50 (FcRn): 1.5 µg/mL
EC50 (FCGR1/CD64): 3.6 nM and 0.534 µg/mL
EC50 (FCGR2A/CD32A (167R)): 4.6 µg/mL
EC50 (FCGR2A/CD32A (167H)): 2.1 µg/mL
B1: VSTB174 (WT) (antibody)
chain 1: not shown
chain 2: DIQMTQSPSSLSASVGDRVTITCRASQSIDTRLNWYQQKPGKAPKLLIYSASSLQSGVPSRFSGSGSGTDFTLTISSLQPEDFATYYCQQSAYNPITFGQGTKVEIKRTVAAPSVFIFPPSDEQLKSGTASVVCLLNNFYPREAKVQWKVDNALQSGNSQESVTEQDSKDSTYSLSSTLTLSKADYEKHKVYACEVTHQGLSSPVTKSFNRGEC

EC50 [3]: 0.142 µg/mL
EC50 [4]: 5.8 nM and 0.868 µg/mL
B5: Antibody No. 150.1 (antibody)
light: not shown
heavy: QVQLQESGPGLVKPSETLSLTCTVSGGSISSYYWSWIRQPPGKGLEWIGYIYYSGSTNYNPSLKSRVTISVDTSKSQFSLKLSSVTAADTAVYYCARDIPAFAFDIWGQGTMVIVSSASTKGPSVFPLAPSSKSTSGGTAALGCLVKDYFPEPVTVSWNSGALTSGVHTFPAVLQSSGLYSLSSVVTVPSSSLGTQTYICNVNHKPSNTKVDKKVEPKSCDKTHTCPPCPAPELLGGPSVFLFPPKPKDTLYITREPEVTCVVVDVSHEDPEVKFNWYVDGVEVHNAKTKPREEQYNSTYRVVSVLTVLHQDWLNGKEYKCKVSNKALPAPIEKTISKAKGQPREPQVYTLPPSRDELTKNQVSLTCLVKGFYPSDIAVEWESNGQPENNYKTTPPVLDSDGSFFLYSKLTVDKSRWQQGNVFSCSVMHEALHNHYTQKSLSLSPGK

EC50 [2]: 0.486 nM and 0.0729 µg/mL
B6: Ab No. 420.4(YTE) (antibody)
chain 1: MGWSCIILFLVATATGVHSQLQLQESGPGLVKPSETLSLTCIVSGGSISSSGYYWGWIRQPPGKGLEWIGSIFYSGNTHYNPSLKSRVTIPVDTSKNQFSLKLSSVTAADSAVYYCARRDILTGPFDYWGQGTLVTVSSAASTKGPSVFPLAPCSRSTSESTAALGCLVKDYFPEPVTVSWNSGALTSGVHTFPAVLQSSGLYSLSSVVTVPSSSLGTKTYTCNVDHKPSNTKVDKRVESKYGPPCPSCPAPEFLGGPSVFLFPPKPKDTLYITREPEVTCVVVDVSQEDPEVQFNWYVDGVEVHNAKTKPREEQFNSTYRVVSVLTVLHQDWLNGKEYKCKVSNKGLPSSIEKTISKAKGQPREPQVYTLPPSQEEMTKNQVSLTCLVKGFYPSDIAVEWESNGQPENNYKTTPPVLDSDGSFFLYSRLTVDKSRWQEGNVFSCSVMHEALHNHYTQKSLSLSLGK
chain 2: not shown
